This is an account of results in patent publication US20250296984A1, “THERAPEUTIC AND DIAGNOSTIC AGENTS AND USES THEREOF” (priority 2022, published 2025).

In test [1] the test system is human primary adrenal cortical, kidney epithelial, cardiac microvascular endothelial, liver epithelial and vein smooth muscle cells. The experiment in a line: Flow cytometry off-target surface binding to human primary cells. As to conditions: all five cell types, PE-labelled antibody. As for the experimental part:
FIG. 19. A. Flowcytometry analysis with the 28-13-5G6-1D3-PE antibody were conducted on various human primary cells to exclude general off-target binding to the surface of these cell types. The following cell lines were studied: human primary adrenal cortical cells, human primary kidney epithelial cells, human primary cardiac microvascular endothelial cells, human primary liver epithelial cells and human primary vein smooth muscle cells. […] B. Original human primary cardiac cells were not available, and human cardiac tissue samples were therefore studied for staining of 13-5G6-1D3 by immunohistochemistry. […] If there were HCMV infections present in the human heart, they were always of productive infection type. […] The positive 13-5G6-1D3 and HCMV ISH results are marked with arrows in the figure. A colour version of FIG. 19 is also provided.
For orientation: A flow cytometer gives signals particle by particle.

For test [2], the target named is T1, US28 protein on CHO-US28-A1 cells (Human cytomegalovirus, UniProt P69332, D170N/D19A).
T1 construct: expressed in transfected cells; host or cells: CHO-K1 (vector pCDH-EF1a-MCS)
Put plainly: Flow cytometry (FACS) surface binding to CHO-US28-A1 cells. Further details: species or system human cytomegalovirus (HCMV). The following applies: recombinant antibody (rAb), FIG. 7. The source says:
FIG. 2. Flowcytometry analysis showing surface binding of the US28-13-5G6-1D3 antibody clone on CHO-US28-A1 cells. From the left, blank control, 2nd antibody control and clone US28-13-5G6-1D3 Ab binding on the surface of the CHO-US28-A1 cells.
FIG. 3. The positive surface binding of the clone US28-13-5G6-1D3 on CHO-US28-A1 cells was further validated by gradient dilution in FACS analysis. From the left, the clone US28-13-5G6-1D3 Ab surface binding to the CHO-US28-A1 cells in dilutions 1:20, 1:50, 1:200 (w/v).
FIG. 4. The positive surface binding of the clone US28-13-5G6-1D3 on CHO-US28-A1 cells was compared with the US28 negative CHO control cells. The clone US28-13-5G6-1D3 Ab bound 15-fold more to the surface of the US28 positive CHO-US28-A1 cells than to the US28 negative CHO cells in 1:50 (w/v).
FIG. 7. […] The surface binding of the 13-5G6-1D3 rAb to CHO cells was only measured in 1:10 dilution (w/v) and was 0.77% after removing the binding to blank and anti-mouse IgG-Alexa 488 secondary Ab controls. […]
In a further embodiment, it is preferred that a binding molecule of the present invention binds preferentially to US28-expressing cells (such as CHO cells engineered to express US28) compared to its binding of US28-negative cells (such as wildtype CHO cells), for example, at a 1:50 (w/v) dilution, for example as determined by flow cytometry assay. […]

Test [3] addresses T2, Peptide-N […] (SEQ ID NO: 177), HCMV US28 ECD1 (Human cytomegalovirus, UniProt P69332).
T2 construct: Peptide-N was prepared via chemical synthesis: […]; made in house; host or cells: chemical synthesis
Put plainly: ELISA, binding to Peptide-N (Bio-Peptide-N / Peptide-N-BSA coating). The protocol:
Microtiter plate wells were coated with 100 μl of the solution containing: (i) Bio-Peptide-N; or (ii) Bio-Peptide-1 and Bio-Peptide-2; at a concentration of between 1-10 μg/ml in coating buffer, consisting of Na2CO3, 1.5 g and NaHCO3, 2.93 g in 1 L of distilled water in pH 9.6, and then incubated for 1-2 hours at room temperature. The plate was washed 3 times in wash buffer consisting of PBS containing 0.05% v/v Tween-20 and blotted with paper towels thereafter. 150 μl of blocking solution containing Phosphate buffered saline (PBS) containing 1% w/v BSA, was added to each well and the plate was incubated for 2 hours at 37° C. The wells were washed 4 times in wash buffer and blotted on paper towels after the last wash. 100 μl of antibody dilution was added to each well and the plate was incubated for 1 hour at 37° C. and thereafter washed 3 times in wash buffer. 100 μl enzyme-conjugated secondary antibody (appropriately diluted in wash buffer) was added to each well and the plate was incubated for 1 hour at 37° C. The wells were then again washed 3 times in wash buffer and blotted with paper towels after the last wash. […] The absorbance values were read immediately at the appropriate wavelength and the data analyzed by Cmax Plus, Molecular Devices, San Jose, CA 95134, USA,
A general note: In an ELISA, binding on a coated surface is turned into a signal by an enzyme label.

B1: 13-5G6-1D3: mouse monoclonal IgG1 kappa antibody against US28 ECD3; VH SEQ ID NO: 12, VL SEQ ID NO: 18 (antibody, V domains shown)
VH: EVKLVESGGGLVQPGGSLRLACATSGFTFTDYYMSWVRQPPGKALEWLGFIRSKANGYTTEYSASVKGRFTISRDNSQSILYLQMNTLRSEDSATYYCARDERRTAWLAYWGQGTLVTVSA
VL: DVLMTQTPLSLPVSLGDQASISCRSSQSIVHSNGNTYLDWYLQKPGQSPKLLIYKVSNRFSGVPDRFSGSGSGTDFTLKISRVEAEDLGVYYCFQGSHVPTWTFGGGTKLEIK
modifications: Mature form of VH sequence of 1D3, without the leader sequence; Mature form of VL sequence of 1D3, without the leader sequence
With B1, the “surface binding to human primary cells” value in test [1] is on record as below 1%.

B2: 13-5G6-1D3 rAb: recombinant antibody product of US28-13-5G6-1D3 produced in HEK293-F cells (antibody)
heavy: EVKLVESGGGLVQPGGSLRLACATSGFTFTDYYMSWVRQPPGKALEWLGFIRSKANGYTTEYSASVKGRFTISRDNSQSILYLQMNTLRSEDSATYYCARDERRTAWLAYWGQGTLVTVSAAKTTPPSVYPLAPGSAAQTNSMVTLGCLVKGYFPEPVTVTWNSGSLSSGVHTFPAVLQSDLYTLSSSVTVPSSTWPSETVTCNVAHPASSTKVDKKIVPRDCGCKPCICTVPEVSSVFIFPPKPKDVLTITLTPKVTCVVVDISKDDPEVQFSWFVDDVEVHTAQTQPREEQFNSTFRSVSELPIMHQDWLNGKEFKCRVNSAAFPAPIEKTISKTKGRPKAPQVYTIPPPKEQMAKDKVSLTCMITDFFPEDITVEWQWNGQPAENYKNTQPIMDTDGSYFIYSKLNVQKSNWEAGNTFTCSVLHEGLHNHHTEKSLSHSPGK
light: DVLMTQTPLSLPVSLGDQASISCRSSQSIVHSNGNTYLDWYLQKPGQSPKLLIYKVSNRFSGVPDRFSGSGSGTDFTLKISRVEAEDLGVYYCFQGSHVPTWTFGGGTKLEIKRADAAPTVSIFPPSSEQLTSGGASVVCFLNNFYPKDINVKWKIDGSERQNGVLNSWTDQDSKDSTYSMSSTLTLTKDEYERHNSYTCEATHKTSTSPIVKSFNRNEC
Turning to B2, the “fold more surface binding on CHO-US28-A1 cells than to normal CHO cells” value in test [2] is given as above 21 fold.

B3: 7B1F3: mouse IgG1 kappa antibody against US28 ECD1 Peptide-N; VH SEQ ID NO: 211, VL SEQ ID NO: 213 (antibody, V domains shown)
VH: EVQLQQSGAELAKPGASVKMSCKASGYTFTNYWMHWVKQRPGQGLEWIGYVNPRTGYTEYNQKFKDKATLTADKSSRTAYMQLSSLTSEDSAVYSCARILNGTGFAYWGQGTLVTVSA
VL: DIVLTQSPSSLTVSVGEKFTMSCKSSQSLLYSSNQKNYLAWYQQKPGQSPKLLIYWASTRESGVPDRFTGSGSGTDFTLAISSVKPEDLAIYYCQQYYSFPLTFGAGTKLEIK
modifications: Mature form of VH sequence of 7B1F3, without the leader sequence; Mature form of VL sequence of 7B1F3, without the leader sequence
Take B3: the “absorbance, Coating: Peptide-N-BSA” value in test [3] (ELISA absorbance, ECD1 subclones) was 2.7989. Moreover, in test [3] (recombinant antibodies), the “qualitative ELISA binding to Bio-Peptide-N” value was “equal, strong and high binding affinity”.
